# US20150086555A1
# How the values were obtained:
# Settings in all cases: remark: other sources report otherwise
# [1] = molecular target: recombinant soluble homotrimeric HA of A/Netherlands/219/03 (H7N7) (Influenza A virus A/Netherlands/219/03(H7N7)); experiment: HA microarray, BCC supernatant
# [2] = molecular target: recombinant soluble homotrimeric HA of A/Wisconsin/67/05 (H3N2) (Influenza A virus A/Wisconsin/67/2005(H3N2)); experiment: HA microarray, BCC supernatant
# [3] = molecular target: recombinant soluble homotrimeric HA of A/Japan/305/57 (H2N2) (Influenza A virus A/Japan/305/1957(H2N2)); experiment: HA microarray, BCC supernatant
# [4] = molecular target: recombinant soluble homotrimeric HA of A/Vietnam/1203/04 (H5N1) (Influenza A virus A/VietNam/1203/2004(H5N1)); experiment: HA microarray, BCC supernatant
# [5] = molecular target: recombinant soluble homotrimeric HA of A/Indonesia/5/05 (H5N1) (Influenza A virus A/Indonesia/5/2005(H5N1)); experiment: HA microarray, BCC supernatant
# [6] = molecular target: recombinant soluble homotrimeric HA of A/duck/Yangzhou/02/05 (H8N4) (Influenza A virus A/duck/Yangzhou/02/2005(H8N4)); experiment: HA microarray, BCC supernatant
# [7] = molecular target: recombinant soluble homotrimeric HA of A/Hong Kong/2108/03 (H9N2) (Influenza A virus A/HK/2108/2003(H9N2)); experiment: HA microarray, BCC supernatant
# [8] = molecular target: recombinant soluble homotrimeric HA of A/swine/Ontario/01911-2/99 (H4N6) (Influenza A virus A/Swine/Ontario/01911-2/99 (H4N6)); experiment: HA microarray, BCC supernatant
# [9] = molecular target: recombinant soluble homotrimeric HA of A/California/4/09 (H1N1) (Influenza A virus A/California/04/2009(H1N1)); experiment: HA microarray, BCC supernatant
# [10] = molecular target: recombinant soluble homotrimeric HA of A/chicken/Vietnam/NCVD-016/08 (H5N1) (Influenza A virus A/chicken/Vietnam/NCVD-016/2008(H5N1)); experiment: HA microarray, BCC supernatant
# [11] = molecular target: recombinant soluble homotrimeric HA of A/northern shoveler/California/HKWF115/07 (H6) (Influenza A virus A/northern shoveler/California/HKWF115/2007(H6N1)); experiment: HA microarray, BCC supernatant
# [12] = molecular target: recombinant soluble homotrimeric HA of A/Anhui/1/05 (H5N1) (Influenza A virus A/Anhui/1/2005(H5N1)); experiment: HA microarray, BCC supernatant
# [13] = molecular target: recombinant soluble homotrimeric HA of A/Solomon Islands/3/06 (H1N1) (Influenza A virus A/Solomon Islands/3/2006(H1N1)); experiment: HA microarray, BCC supernatant
# [14] = molecular target: recombinant homotrimeric HA A/Wisconsin/67/05 H3N2 (Influenza A virus A/Wisconsin/67/2005(H3N2)); experiment: protein microarray, purified IgG, trimeric HA
# [15] = molecular target: recombinant homotrimeric HA A/Japan/305/57 H2N2 (Influenza A virus A/Japan/305/1957(H2N2)); experiment: protein microarray, purified IgG, trimeric HA
# [16] = molecular target: recombinant homotrimeric HA A/Egypt/3300-NAMRU3/08 H5N1 (Influenza A virus A/Egypt/3300-NAMRU3/2008(H5N1)); experiment: protein microarray, purified IgG, trimeric HA
# [17] = molecular target: recombinant homotrimeric HA A/Hong Kong/2108/03 H9N2 (Influenza A virus A/HK/2108/2003(H9N2)); experiment: protein microarray, purified IgG, trimeric HA
# [18] = molecular target: recombinant homotrimeric HA A/Hong Kong/1073/99 H9N2 (Influenza A virus A/Hong Kong/1073/99 (H9N2)); experiment: protein microarray, purified IgG, trimeric HA
# [19] = molecular target: recombinant homotrimeric HA A/Solomon Islands/3/06 H1N1 (Influenza A virus A/Solomon Islands/3/2006(H1N1)); experiment: protein microarray, purified IgG, trimeric HA
# [20] = molecular target: recombinant homotrimeric HA A/South Carolina/1/18 H1N1 (Influenza A virus A/South Carolina/1/18 (H1N1)); experiment: protein microarray, purified IgG, trimeric HA
# [21] = molecular target: recombinant homotrimeric HA A/Netherlands/219/03 H7N7 (Influenza A virus A/Netherlands/219/03(H7N7)); experiment: protein microarray, purified IgG, trimeric HA
# [22] = molecular target: recombinant homotrimeric HA A/Indonesia/5/05 H5N1 (Influenza A virus A/Indonesia/5/2005(H5N1)); experiment: protein microarray, purified IgG, trimeric HA
# [23] = molecular target: recombinant homotrimeric HA A/northern shoveler/California/HKWF115/07 H6N4 (Influenza A virus A/northern shoveler/California/HKWF115/2007(H6N1)); experiment: protein microarray, purified IgG, trimeric HA
# [24] = molecular target: recombinant homotrimeric HA A/Hong Kong/156/97 H5N1 (Influenza A virus A/Hong Kong/156/97 (H5N1)); experiment: protein microarray, purified IgG, trimeric HA
# [25] = molecular target: recombinant homotrimeric HA A/Vietnam/1203/04 H5N1 (Influenza A virus A/VietNam/1203/2004(H5N1)); experiment: protein microarray, purified IgG, trimeric HA
# [26] = molecular target: recombinant homotrimeric HA A/chicken/Vietnam/NCVD-016/08 H5N1 (Influenza A virus A/chicken/Vietnam/NCVD-016/2008(H5N1)); experiment: protein microarray, purified IgG, trimeric HA
# [27] = molecular target: recombinant homotrimeric HA A/California/4/09 H1N1 (Influenza A virus A/California/04/2009(H1N1)); experiment: protein microarray, purified IgG, trimeric HA
# [28] = molecular target: recombinant homotrimeric HA A/Anhui/1/05 H5N1 (Influenza A virus A/Anhui/1/2005(H5N1)); experiment: protein microarray, purified IgG, trimeric HA
Binder,Trimeric HA Binding: RLU [1] [RLU],Trimeric HA Binding: RLU [2] [RLU],Trimeric HA Binding: RLU [3] [RLU],Trimeric HA Binding: RLU [4] [RLU],Trimeric HA Binding: RLU [5] [RLU],Trimeric HA Binding: RLU [6] [RLU],Trimeric HA Binding: RLU [7] [RLU],Trimeric HA Binding: RLU [8] [RLU],Trimeric HA Binding: RLU [9] [RLU],Trimeric HA Binding: RLU [10] [RLU],Trimeric HA Binding: RLU [11] [RLU],Trimeric HA Binding: RLU [12] [RLU],Trimeric HA Binding: RLU [13] [RLU],Trimeric HA Binding: RLU [14] [RLU],Trimeric HA Binding: RLU [15] [RLU],Trimeric HA Binding: RLU [16] [RLU],Trimeric HA Binding: RLU [18] [RLU],Trimeric HA Binding: RLU [19] [RLU],Trimeric HA Binding: RLU [20] [RLU],Trimeric HA Binding: RLU [21] [RLU],further results
"TCN-530 (5248_H10a) (antibody, V domains shown) VH: QVQLVQSGAEVRKPGSSVKVSCKASGGPFMSYAIGWVRQAPGQGLEWMGGINPVFGRPHYAQKFQGRVTIATDDSTKTSYMELSSLTSEDTGMYYCASRYSRSSPGTFESWGQGTLVTVSS VL: EIVMTQFPATLSVSPGERVTLSCRASQSVSNNLAWYQQKPGQPPRLLIYDASTRATGVPAKFSGTGSGTEFTLSISSLQSEDFAVYYCQQYHNWPPSYSFGLGTKLEIK",2900,36800,47000,7150,39800,41700,486,2740,46600,48300,45300,11900,32800,132,9040,12300,874,8570,7360,402,Trimeric HA Binding: RLU [17]: 169 RLU; Trimeric HA Binding: RLU [22]: 10900 RLU; Trimeric HA Binding: RLU [23]: 9010 RLU; Trimeric HA Binding: RLU [24]: 14000 RLU; Trimeric HA Binding: RLU [25]: 19100 RLU; Trimeric HA Binding: RLU [26]: 2050 RLU; Trimeric HA Binding: RLU [27]: 14200 RLU
"TCN-535 (5246_P19) (antibody, V domains shown) VH: QVQLVQSGSEVKKPGTSVKVSCTASGSVFTNYGISWVRQAPGQGLEWMGGIIPLFGAAKYAQKFQGRVTITADESTKTVYMELSRLTSKDTAIYFCAKAPRVYEYYFDQWGQGTPVTVSS VL: EIVLTQSPGTLSLSPGERATLSCRASQSVSSSQLAWYQQKPGQAPRLIIYGASTRATGIPDRFSGSGSGTDFTLTIGRLEPEDFAVFFCQQYSTSPPTFGQGTKVDFK",4760,34300,26100,4740,45600,36600,861,5950,48600,50000,48200,6880,39400,148,13000,18100,3470,11300,5660,339,Trimeric HA Binding: RLU [28]: 6700 RLU; Trimeric HA Binding: RLU [22]: 17900 RLU; Trimeric HA Binding: RLU [23]: 5880 RLU; Trimeric HA Binding: RLU [24]: 13200 RLU; Trimeric HA Binding: RLU [25]: 20800 RLU; Trimeric HA Binding: RLU [26]: 2630 RLU; Trimeric HA Binding: RLU [27]: 17200 RLU
"TCN-550 (5096_F06) (antibody, V domains shown) VH: QVQLQESGPGLVKPSETLSLTCTVSGASINSHYWSWIRQPPGKGLEWIGYVYYSGSTTYNPSLKSRVTLSVDTSKNQFSLNLSSVTAADTAFYYCARHPYDVLTGSGDWFDPWGQGTLVTVSS VL: SYVLTQAPSVSVAPGQTARITCGGNAIGSKKVHWYQHKAGQAPVLVVYDDTDRPSGIPERFSGSNSWSTATLTINRVEAGDEADYYCQVWDFTIDHVVFGGGTKLTVL",939,26300,201,277,9100,407,2280,195,454,361,964,1210,204,21300,499,3530,413,752,104,223,Trimeric HA Binding: RLU [17]: 150 RLU; Trimeric HA Binding: RLU [28]: 4780 RLU; Trimeric HA Binding: RLU [23]: 106 RLU; Trimeric HA Binding: RLU [24]: 304 RLU; Trimeric HA Binding: RLU [25]: 829 RLU; Trimeric HA Binding: RLU [26]: 295 RLU; Trimeric HA Binding: RLU [27]: 238 RLU
